US20220018856A1
One block for each substance: values may come before it.

Assays:
[1] = target: tau protein of the calibrator reagent for measuring total tau protein (LUMIPULSE G Total Tau Calibrators set, Fujirebio) (UniProt P10636); assay: sandwich CLEIA, capture on AT120 magnetic particles, SA-ALP detection; calibrator 420 pg/mL
[2] = target: tau protein of the calibrator reagent for measuring total tau protein (LUMIPULSE G Total Tau Calibrators set, Fujirebio) (UniProt P10636); assay: sandwich CLEIA, AT120 capture, SA-ALP detection; calculated count at 600 pg/mL over count at 0 pg/mL
[3] = target: tau protein in samples obtained by diluting a cerebrospinal fluid specimen with buffer (UniProt P10636); assay: sandwich CLEIA, AT120 capture, SA-ALP detection; diluted cerebrospinal fluid sample LoQ 1, mean of n=10
[4] = target: tau protein in samples obtained by diluting a cerebrospinal fluid specimen with buffer (UniProt P10636); assay: sandwich CLEIA, AT120 capture, SA-ALP detection; diluted cerebrospinal fluid sample LoB, mean of n=10
[5] = target: tau protein in samples obtained by diluting a cerebrospinal fluid specimen with buffer (UniProt P10636); assay: sandwich CLEIA, AT120 capture, SA-ALP detection; diluted cerebrospinal fluid sample LoQ 2, mean of n=10
[6] = target: tau protein of the calibrator reagent for measuring total tau protein (LUMIPULSE G Total Tau Calibrators set, Fujirebio) (UniProt P10636); assay: sandwich CLEIA, capture on AT120 magnetic particles, SA-ALP detection; calibrator 0 pg/mL (blank)
[7] = target: tau protein of the calibrator reagent for measuring total tau protein (LUMIPULSE G Total Tau Calibrators set, Fujirebio) (UniProt P10636); assay: sandwich CLEIA, capture on AT120 magnetic particles, SA-ALP detection; calibrator 900 pg/mL
[8] = target: tau protein in samples obtained by diluting a cerebrospinal fluid specimen with buffer (UniProt P10636); assay: sandwich CLEIA, AT120 capture, SA-ALP detection; diluted cerebrospinal fluid sample LoQ 3, mean of n=10
[9] = target: tau protein in samples obtained by diluting a cerebrospinal fluid specimen with buffer (UniProt P10636); assay: sandwich CLEIA, AT120 capture, SA-ALP detection; diluted cerebrospinal fluid sample LoQ 4, mean of n=10
[10] = target: tau protein in samples obtained by diluting a cerebrospinal fluid specimen with buffer (UniProt P10636); assay: sandwich CLEIA, AT120 capture, SA-ALP detection; diluted cerebrospinal fluid sample LoQ 5, mean of n=10
[11] = target: tau protein of the calibrator reagent for measuring total tau protein (LUMIPULSE G Total Tau Calibrators set, Fujirebio) (UniProt P10636); assay: sandwich CLEIA, capture on AT120 magnetic particles, SA-ALP detection; calibrator 2250 pg/mL
[12] = target: tau protein of the calibrator reagent for measuring total tau protein (LUMIPULSE G Total Tau Calibrators set, Fujirebio) (UniProt P10636); assay: sandwich CLEIA, capture on AT120 magnetic particles, SA-ALP detection; calibrator 150 pg/mL
[13] = target: tau protein of the calibrator reagent for measuring total tau protein (LUMIPULSE G Total Tau Calibrators set, Fujirebio) (UniProt P10636); assay: sandwich CLEIA, capture on AT120 magnetic particles, SA-ALP detection; calibrator 60 pg/mL
[14] = target: phosphorylated tau peptide antigen in which threonine at position 181 in tau protein had been phosphorylated; assay: sandwich CLEIA (Lumipulse G), capture on AT270 magnetic particles, ALP-SA label; antigen 200 pg/mL
[15] = target: phosphorylated tau peptide antigen in which threonine at position 181 in tau protein had been phosphorylated; assay: sandwich CLEIA (Lumipulse G), capture on AT270 magnetic particles, ALP-SA label; antigen 0 pg/mL (blank)
[16] = target: phosphorylated tau peptide antigen in which threonine at position 181 in tau protein had been phosphorylated; assay: sandwich CLEIA (Lumipulse G), capture on AT270 magnetic particles, ALP-SA label; antigen 40 pg/mL
[17] = target: phosphorylated tau peptide antigen in which threonine at position 181 in tau protein had been phosphorylated; assay: sandwich CLEIA (Lumipulse G), capture on AT270 magnetic particles, ALP-SA label; antigen 100 pg/mL
[18] = target: phosphorylated tau peptide antigen in which threonine at position 181 in tau protein had been phosphorylated; assay: sandwich CLEIA, AT270 capture; S/N (40/0 pg/mL) against the mixture of ALP-labeled single antibodies
[19] = target: phosphorylated tau peptide antigen in which threonine at position 181 in tau protein had been phosphorylated; assay: sandwich CLEIA (Lumipulse G), capture on AT270 magnetic particles, ALP-SA label; antigen 400 pg/mL
[20] = target: phosphorylated tau peptide antigen in which threonine at position 181 in tau protein had been phosphorylated; assay: sandwich CLEIA, AT270 capture; count at 40 pg/mL over count at 0 pg/mL
[21] = target: phosphorylated tau peptide antigen in which threonine at position 181 in tau protein had been phosphorylated; assay: sandwich CLEIA (Lumipulse G), capture on AT270 magnetic particles; antigen 150 pM
[22] = target: tau protein of the calibrator reagent for measuring total tau protein (LUMIPULSE G Total Tau Calibrators set, Fujirebio) (UniProt P10636); assay: one-step sandwich CLEIA (Lumipulse G), capture on AT120 magnetic particles; calibrator 667 pg/mL
[23] = target: tau protein of the calibrator reagent for measuring total tau protein (LUMIPULSE G Total Tau Calibrators set, Fujirebio) (UniProt P10636); assay: sandwich CLEIA, AT120 capture; calculated count at 600 pg/mL over count at 0 pg/mL
[24] = target: phosphorylated tau peptide antigen in which threonine at position 181 in tau protein had been phosphorylated; assay: sandwich CLEIA (Lumipulse G), capture on AT270 magnetic particles; antigen 9 pM
[25] = target: tau protein in samples obtained by diluting a cerebrospinal fluid specimen with buffer (UniProt P10636); assay: one-step sandwich CLEIA, AT120 capture; diluted cerebrospinal fluid sample LoQ 5, mean of n=10
[26] = target: phosphorylated tau peptide antigen in which threonine at position 181 in tau protein had been phosphorylated; assay: sandwich CLEIA (Lumipulse G), capture on AT270 magnetic particles; antigen 72 pM
[27] = target: phosphorylated tau peptide antigen in which threonine at position 181 in tau protein had been phosphorylated; assay: sandwich CLEIA (Lumipulse G), capture on AT270 magnetic particles; antigen 0 pM (blank)
[28] = target: phosphorylated tau peptide antigen in which threonine at position 181 in tau protein had been phosphorylated; assay: sandwich CLEIA (Lumipulse G), capture on AT270 magnetic particles; antigen 36 pM
[29] = target: tau protein in samples obtained by diluting a cerebrospinal fluid specimen with buffer (UniProt P10636); assay: one-step sandwich CLEIA, AT120 capture; diluted cerebrospinal fluid sample LoQ 2, mean of n=10
[30] = target: tau protein in samples obtained by diluting a cerebrospinal fluid specimen with buffer (UniProt P10636); assay: one-step sandwich CLEIA, AT120 capture; diluted cerebrospinal fluid sample LoQ 3, mean of n=10
[31] = target: phosphorylated tau peptide antigen in which threonine at position 181 in tau protein had been phosphorylated; assay: sandwich CLEIA (Lumipulse G), capture on AT270 magnetic particles; antigen 18 pM
[32] = target: tau protein in samples obtained by diluting a cerebrospinal fluid specimen with buffer (UniProt P10636); assay: one-step sandwich CLEIA, AT120 capture; diluted cerebrospinal fluid sample LoQ 4, mean of n=10
[33] = target: tau protein of the calibrator reagent for measuring total tau protein (LUMIPULSE G Total Tau Calibrators set, Fujirebio) (UniProt P10636); assay: one-step sandwich CLEIA (Lumipulse G), capture on AT120 magnetic particles; calibrator 0 pg/mL (blank)
[34] = target: tau protein of the calibrator reagent for measuring total tau protein (LUMIPULSE G Total Tau Calibrators set, Fujirebio) (UniProt P10636); assay: one-step sandwich CLEIA (Lumipulse G), capture on AT120 magnetic particles; calibrator 2639 pg/mL
[35] = target: phosphorylated tau peptide antigen in which threonine at position 181 in tau protein had been phosphorylated; assay: sandwich CLEIA, AT270 capture; S/N (4.5 pM/0 pM) against the ALP-labeled single antibody mixtures
[36] = target: tau protein of the calibrator reagent for measuring total tau protein (LUMIPULSE G Total Tau Calibrators set, Fujirebio) (UniProt P10636); assay: one-step sandwich CLEIA (Lumipulse G), capture on AT120 magnetic particles; calibrator 213 pg/mL
[37] = target: phosphorylated tau peptide antigen in which threonine at position 181 in tau protein had been phosphorylated; assay: sandwich CLEIA, AT270 capture; count at 4.5 pM over count at 0 pM
[38] = target: tau protein of the calibrator reagent for measuring total tau protein (LUMIPULSE G Total Tau Calibrators set, Fujirebio) (UniProt P10636); assay: one-step sandwich CLEIA (Lumipulse G), capture on AT120 magnetic particles; calibrator 1037 pg/mL
[39] = target: tau protein of the calibrator reagent for measuring total tau protein (LUMIPULSE G Total Tau Calibrators set, Fujirebio) (UniProt P10636); assay: sandwich CLEIA, AT120 capture; S/N (600/0 pg/mL) against BT2-bio + HT7-bio with SA-ALP
[40] = target: tau protein in samples obtained by diluting a cerebrospinal fluid specimen with buffer (UniProt P10636); assay: one-step sandwich CLEIA, AT120 capture; diluted cerebrospinal fluid sample LoQ 1, mean of n=10
[41] = target: tau protein of the calibrator reagent for measuring total tau protein (LUMIPULSE G Total Tau Calibrators set, Fujirebio) (UniProt P10636); assay: one-step sandwich CLEIA (Lumipulse G), capture on AT120 magnetic particles; calibrator 101 pg/mL
[42] = target: tau protein in samples obtained by diluting a cerebrospinal fluid specimen with buffer (UniProt P10636); assay: one-step sandwich CLEIA, AT120 capture; diluted cerebrospinal fluid sample LoB, mean of n=10
[43] = target: phosphorylated tau peptide antigen in which threonine at position 181 in tau protein had been phosphorylated; assay: sandwich CLEIA (Lumipulse G), capture on AT270 magnetic particles; antigen 4.5 pM

Count value [1]: 2670 count
S/N (600/0) [2]: 10
Count value [3]: 455 count
Count value [4]: 408 count
Count value [5]: 585 count
Count value [6]: 409 count
Count value [7]: 7070 count
Count value [8]: 641 count
Count value [9]: 694 count
Count value [10]: 858 count
Count value [11]: 38100 count
Count value [12]: 817 count
Count value [13]: 514 count
Substance: antibody mixture of biotinylated monoclonal antibody BT2 and biotinylated monoclonal antibody HT7, detected with streptavidin-labeled ALP

Count value [14]: 14400 count
Count value [15]: 312 count
Count value [16]: 3110 count
Count value [17]: 7390 count
S/N ratio against the mixed conjugate reaction solution [18]: 9 fold
Count value [19]: 28700 count
S/N (40/0) [20]: 10
Substance: BSA linker hybrid conjugate 1 labeled with ALP (BT2 Fab′ and HT7 Fab′ on maleimidated BSA, biotinylated, with streptavidin-conjugated alkaline phosphatase) (from UniProt P02769 25-607)

Count value [14]: 19300 count
Count value [15]: 278 count
Count value [16]: 3970 count
Count value [17]: 10100 count
S/N ratio against the mixed conjugate reaction solution [18]: 13 fold
Count value [19]: 37300 count
S/N (40/0) [20]: 14.3
Substance: BSA linker hybrid conjugate 2 labeled with ALP (BT2 Fab′ and HT7 Fab′ on biotinylated and maleimidated thiolated BSA, with streptavidin-conjugated alkaline phosphatase) (from UniProt P02769 25-607)

Count value [21]: 1.35e+06 count
Count value [22]: 50400 count
S/N (600/0) [23]: 60.6
Count value [24]: 73800 count
Count value [25]: 2380 count
Count value [26]: 576000 count
Count value [27]: 595 count
Count value [28]: 297000 count
Count value [29]: 1160 count
Count value [30]: 1600 count
Count value [31]: 153000 count
Count value [32]: 1970 count
Count value [33]: 744 count
Count value [34]: 211000 count
S/N ratio against the ALP-labeled Fab′ fragment mixture [35]: 6 fold
Count value [36]: 17600 count
S/N (4.5/0) [37]: 71.7
Count value [38]: 83600 count
S/N ratio against the mixture of the labeled antibodies [39]: 6 fold
Count value [40]: 982 count
Count value [41]: 9280 count
Count value [42]: 728 count
Count value [43]: 42600 count
Substance: hybrid conjugate labeled with alkaline phosphatase (BT2 Fab′ fragment and HT7 Fab′ fragment coupled to maleimidated ALP)
